Assay results as given in patent US20260001961A1 (ALLIGATOR BIOSCIENCE, published 2026).

Columns and labels:
CD40 = target: T1, CD40 (UniProt P25942 21-193); test: dual target ELISA (simultaneous 5T4 and CD40)
T1 construct: also called biotinylated CD40; CD40 antigen
Protocol: Antigen binding was evaluated by dual target ELISA. In brief, relevant antigens were coated at 0.5 μg/ml in PBS in ELISA plates over night at 4° C. After washing in PBS/0.05% Tween 20 (PBST), the plates were blocked with PBST/2% BSA for at least 30 minutes at room temperature before being washed again. Samples serially diluted in PBST/0.5% BSA were then added and allowed to bind for at least 1 hour at room temperature. […] Dual complexed bsAb were detected with HRP-labelled streptavidin. SuperSignal Pico Luminescent was used as substrate and luminescence signals were measured using Fluostar Optima. Binding was compared between parental and mutated RUBY pairs.

CD40 expressed on cells = target: T2, CD40 expressed on cells (UniProt P25942 21-277); test: flow cytometry on B16 cells expressing CD40, anti-human IgG Fcg-PE; B16wt cells as control
T2 construct: whole, on cells; also called B16-CD40; CD40 expressing B16 cells
T2 sequence (P25942 21-277 limits assumed): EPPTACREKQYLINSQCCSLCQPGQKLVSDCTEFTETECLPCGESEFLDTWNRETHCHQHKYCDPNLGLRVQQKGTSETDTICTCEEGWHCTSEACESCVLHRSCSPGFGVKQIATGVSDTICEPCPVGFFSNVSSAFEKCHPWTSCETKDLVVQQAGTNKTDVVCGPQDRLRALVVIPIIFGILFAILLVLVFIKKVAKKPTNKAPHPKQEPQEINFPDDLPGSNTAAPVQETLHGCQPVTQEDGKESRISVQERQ
Protocol: Binding to respective targets expressed on cells were evaluated using flow cytometry. I brief, CHO cells modified to express 5T4, B16 cells modified to express CD40 as well as the wildtype CHO and B16 cell lines were incubated with titrated concentrations of RUBY™ bsAbs. Binding of the antibodies was detected using fluorochrome-conjugated anti-human IgG and analyzed using flow cytometry.

T1 sequence (P25942 21-193 limits assumed): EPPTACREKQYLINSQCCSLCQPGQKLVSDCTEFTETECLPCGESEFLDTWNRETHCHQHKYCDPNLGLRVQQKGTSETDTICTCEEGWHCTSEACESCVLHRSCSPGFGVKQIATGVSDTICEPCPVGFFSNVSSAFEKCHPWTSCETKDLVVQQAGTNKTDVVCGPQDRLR

B1: AC_05376 (bispecific antibody)
heavy 1: not shown
light: DIQMTQSPSSLSASVGDRVTITCRASQSISSYLNWYQEKPGKAPKLLIYAASSLQSGVPSRFSGSGSGTDFTLTISSLQPEDFATYYCQQYGRNPPTFGQGTKLEIKRTVAAPSVFIFPPSDEQLKSGTASVVCYLNNFYPREAKVQWKVDNALQSGNSQESVTEQDSKDSTYSLWSTLTLSKADYEKHKVYACEVTHQGLSSPVTKSFNRGEC
heavy 2: EVQLLESGGGLVQPGGSLRLSCAASGFTFSSYAMSWVREAPGKGLEWVSAISGSGGSEYYADSVKGRFTISRDNSKNTLYLQMNSLRAEDTAVYYCARYYGGYYSAWMDYWGQGTLVTVSSASTKGPSVFPLAPSSKSTSGGTAALGCLVKDYFPEPVTVSWNSGALTSGVHTFPAVLQSSGLYSLSSVVEVPSSSLGTQTYICNVNHKPSNTKVDKKVEPKSC
notes: AC_05302 with the mutation in the VH of chain H2; also called T65E mutant of AC_05302; copies: 2 + 2 + 2
CD40
  binding result: no binding
CD40 expressed on cells
  binding result: no binding (tested: about 330 nM)
